In paper PMC3690534 (Molecular Cell, 2013):
Residue numbers refer to the chain shown, from its start. Numbers in names are those of the source. Square brackets hold non-standard residues; d marks the D form. pS = N[C@@H](COP(=O)(O)O)C(=O)O

Key:
[1] = molecular target: T1, Saccharomyces cerevisiae Cdh1 WD40 domain (residues 241-550) (S. cerevisiae, UniProt P53197 241-550); test: crystal structure
T1 sequence (looked up): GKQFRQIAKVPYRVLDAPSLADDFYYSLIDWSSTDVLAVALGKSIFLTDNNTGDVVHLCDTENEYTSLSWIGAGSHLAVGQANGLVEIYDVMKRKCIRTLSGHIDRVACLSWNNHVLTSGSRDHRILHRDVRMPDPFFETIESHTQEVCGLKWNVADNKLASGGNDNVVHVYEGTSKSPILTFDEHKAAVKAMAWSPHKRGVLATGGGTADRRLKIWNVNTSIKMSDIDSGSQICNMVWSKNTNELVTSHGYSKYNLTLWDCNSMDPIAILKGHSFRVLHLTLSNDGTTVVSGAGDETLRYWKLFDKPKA

[2] = molecular target: T1, Saccharomyces cerevisiae Cdh1 WD40 …; test: SAXS
[3] = molecular target: T1, Saccharomyces cerevisiae Cdh1 WD40 …; test: AUC
[4] = molecular target: T1, Saccharomyces cerevisiae Cdh1 WD40 …; test: SEC-MALS

B1: Acm1 central inhibitory region (residues 59-128) (domain or fragment, S. cerevisiae, UniProt Q08981 59-128, looked up)
chain: AQFMLYEETAEERNIAVHRHNEIYNNNNSVSNENNPSQVKENL[pS]PAKICPYERAFLREGGRIALKDLSVD
binding result [1]: binds

B2: Acm1^CIR-mNEN (Acm1^CIR-N90A/E91A/N92A) (domain or fragment, S. cerevisiae, UniProt Q08981 59-128, looked up)
chain: AQFMLYEETAEERNIAVHRHNEIYNNNNSVSAAANPSQVKENLSPAKICPYERAFLREGGRIALKDLSVD
binding result [2]: binds

B3: Acm1^ΔN (Acm1 residues 59-209), wild type (domain or fragment, S. cerevisiae, UniProt Q08981 59-209, looked up)
chain: AQFMLYEETAEERNIAVHRHNEIYNNNNSVSNENNPSQVKENLSPAKICPYERAFLREGGRIALKDLSVDEFKGYIQDPLTDETIPLTLPLGDKKISLPSFITPPRNSKISIFFTSKHQGQNPETKISRSTDDVSEKKVVRKLSFHVYEDE
binding result [3]: binds

B4: Acm1^ΔN-T161A (Acm1 residues 59-209, T161A) (domain or fragment, S. cerevisiae, UniProt Q08981 59-209, looked up)
chain: B3 chain with T103A
binding result [4]: binds
